# ± gives the uncertainty stated by the source.
# B1: Retinoic acid receptor RXR-alpha, residues 132 to 208; numbered along this chain, P19793 (parent)
# chain: KHICAICGDRSSGKHYGVYSCEGCKGFFKRTVRKDLTYTCRDNKDCLIDKRQRNRCQYCRYQKCLAMGMKREAVQEE
# Variants of: B1
# Experiment: abundance fitness (aPCA) (normalised: wild type 0, dead -1); higher = more abundant; growth selection in yeast, the domain comes from the species named
# Settings: Homo sapiens
row,Variant,abundance fitness
1,KHICAICGDRSSGKHYGVYSCEGCKGFFKRTVRKDLTYTRRDNKDCLIDKRQRNRCQYCRYQKCLAMGMKREAVQEE [C40R],-0.659 ± 0.053
2,KHICAICGDRSSGKHYGVYSCEGCKGFFKRTVRKDLTYTTRDNKDCLIDKRQRNRCQYCRYQKCLAMGMKREAVQEE [C40T],-0.643 ± 0.082
3,KHICAICGDRSSGKHYGVYSCEGCKGFFKRTVRKDLTYTVRDNKDCLIDKRQRNRCQYCRYQKCLAMGMKREAVQEE [C40V],-0.737 ± 0.056
4,KHICAICGDRSSGKHYGVYSCEGCKGFFKRTVRKDLTYTWRDNKDCLIDKRQRNRCQYCRYQKCLAMGMKREAVQEE [C40W],-0.832 ± 0.089
5,KHICAICGDRSSGKHYGVYSCEGCKGFFKRTVRKDLTYTCCDNKDCLIDKRQRNRCQYCRYQKCLAMGMKREAVQEE [R41C],0.096 ± 0.035
6,KHICAICGDRSSGKHYGVYSCEGCKGFFKRTVRKDLTYTCDDNKDCLIDKRQRNRCQYCRYQKCLAMGMKREAVQEE [R41D],0.056 ± 0.038
7,KHICAICGDRSSGKHYGVYSCEGCKGFFKRTVRKDLTYTCEDNKDCLIDKRQRNRCQYCRYQKCLAMGMKREAVQEE [R41E],0.14 ± 0.05
8,KHICAICGDRSSGKHYGVYSCEGCKGFFKRTVRKDLTYTCFDNKDCLIDKRQRNRCQYCRYQKCLAMGMKREAVQEE [R41F],0.032 ± 0.031
9,KHICAICGDRSSGKHYGVYSCEGCKGFFKRTVRKDLTYTCGDNKDCLIDKRQRNRCQYCRYQKCLAMGMKREAVQEE [R41G],0.095 ± 0.04
10,KHICAICGDRSSGKHYGVYSCEGCKGFFKRTVRKDLTYTCHDNKDCLIDKRQRNRCQYCRYQKCLAMGMKREAVQEE [R41H],0.06 ± 0.033
11,KHICAICGDRSSGKHYGVYSCEGCKGFFKRTVRKDLTYTCIDNKDCLIDKRQRNRCQYCRYQKCLAMGMKREAVQEE [R41I],0.041 ± 0.033
12,KHICAICGDRSSGKHYGVYSCEGCKGFFKRTVRKDLTYTCKDNKDCLIDKRQRNRCQYCRYQKCLAMGMKREAVQEE [R41K],0.026 ± 0.05
13,KHICAICGDRSSGKHYGVYSCEGCKGFFKRTVRKDLTYTCLDNKDCLIDKRQRNRCQYCRYQKCLAMGMKREAVQEE [R41L],-0.091 ± 0.026
14,KHICAICGDRSSGKHYGVYSCEGCKGFFKRTVRKDLTYTCMDNKDCLIDKRQRNRCQYCRYQKCLAMGMKREAVQEE [R41M],0.018 ± 0.039
15,KHICAICGDRSSGKHYGVYSCEGCKGFFKRTVRKDLTYTCNDNKDCLIDKRQRNRCQYCRYQKCLAMGMKREAVQEE [R41N],-0.05 ± 0.032
16,KHICAICGDRSSGKHYGVYSCEGCKGFFKRTVRKDLTYTCPDNKDCLIDKRQRNRCQYCRYQKCLAMGMKREAVQEE [R41P],0.059 ± 0.029
17,KHICAICGDRSSGKHYGVYSCEGCKGFFKRTVRKDLTYTCQDNKDCLIDKRQRNRCQYCRYQKCLAMGMKREAVQEE [R41Q],0.041 ± 0.043
18,KHICAICGDRSSGKHYGVYSCEGCKGFFKRTVRKDLTYTCTDNKDCLIDKRQRNRCQYCRYQKCLAMGMKREAVQEE [R41T],0.035 ± 0.029
19,KHICAICGDRSSGKHYGVYSCEGCKGFFKRTVRKDLTYTCVDNKDCLIDKRQRNRCQYCRYQKCLAMGMKREAVQEE [R41V],-0.01 ± 0.031
20,KHICAICGDRSSGKHYGVYSCEGCKGFFKRTVRKDLTYTCWDNKDCLIDKRQRNRCQYCRYQKCLAMGMKREAVQEE [R41W],-0.007 ± 0.057
21,KHICAICGDRSSGKHYGVYSCEGCKGFFKRTVRKDLTYTCYDNKDCLIDKRQRNRCQYCRYQKCLAMGMKREAVQEE [R41Y],-0.002 ± 0.032
22,KHICAICGDRSSGKHYGVYSCEGCKGFFKRTVRKDLTYTCRGNKDCLIDKRQRNRCQYCRYQKCLAMGMKREAVQEE [D42G],0.091 ± 0.34
23,KHICAICGDRSSGKHYGVYSCEGCKGFFKRTVRKDLTYTCRNNKDCLIDKRQRNRCQYCRYQKCLAMGMKREAVQEE [D42N],0.02 ± 0.11
24,KHICAICGDRSSGKHYGVYSCEGCKGFFKRTVRKDLTYTCRDAKDCLIDKRQRNRCQYCRYQKCLAMGMKREAVQEE [N43A],0.008 ± 0.039

row,Variant,abundance fitness
1,KHICAICGDRSSGKHYGVYSCEGCKGFFKRTVRKDLTYTCRDCKDCLIDKRQRNRCQYCRYQKCLAMGMKREAVQEE [N43C],-0.115 ± 0.059
2,KHICAICGDRSSGKHYGVYSCEGCKGFFKRTVRKDLTYTCRDDKDCLIDKRQRNRCQYCRYQKCLAMGMKREAVQEE [N43D],-0.181 ± 0.12
3,KHICAICGDRSSGKHYGVYSCEGCKGFFKRTVRKDLTYTCRDEKDCLIDKRQRNRCQYCRYQKCLAMGMKREAVQEE [N43E],0.053 ± 0.04
4,KHICAICGDRSSGKHYGVYSCEGCKGFFKRTVRKDLTYTCRDFKDCLIDKRQRNRCQYCRYQKCLAMGMKREAVQEE [N43F],-0.071 ± 0.068
5,KHICAICGDRSSGKHYGVYSCEGCKGFFKRTVRKDLTYTCRDGKDCLIDKRQRNRCQYCRYQKCLAMGMKREAVQEE [N43G],0.053 ± 0.031
6,KHICAICGDRSSGKHYGVYSCEGCKGFFKRTVRKDLTYTCRDHKDCLIDKRQRNRCQYCRYQKCLAMGMKREAVQEE [N43H],0.066 ± 0.082
7,KHICAICGDRSSGKHYGVYSCEGCKGFFKRTVRKDLTYTCRDIKDCLIDKRQRNRCQYCRYQKCLAMGMKREAVQEE [N43I],0.019 ± 0.075
8,KHICAICGDRSSGKHYGVYSCEGCKGFFKRTVRKDLTYTCRDKKDCLIDKRQRNRCQYCRYQKCLAMGMKREAVQEE [N43K],0.1 ± 0.052
9,KHICAICGDRSSGKHYGVYSCEGCKGFFKRTVRKDLTYTCRDLKDCLIDKRQRNRCQYCRYQKCLAMGMKREAVQEE [N43L],-0.009 ± 0.036
10,KHICAICGDRSSGKHYGVYSCEGCKGFFKRTVRKDLTYTCRDMKDCLIDKRQRNRCQYCRYQKCLAMGMKREAVQEE [N43M],0.02 ± 0.048
11,KHICAICGDRSSGKHYGVYSCEGCKGFFKRTVRKDLTYTCRDPKDCLIDKRQRNRCQYCRYQKCLAMGMKREAVQEE [N43P],-0.065 ± 0.052
12,KHICAICGDRSSGKHYGVYSCEGCKGFFKRTVRKDLTYTCRDQKDCLIDKRQRNRCQYCRYQKCLAMGMKREAVQEE [N43Q],-0.099 ± 0.052
13,KHICAICGDRSSGKHYGVYSCEGCKGFFKRTVRKDLTYTCRDRKDCLIDKRQRNRCQYCRYQKCLAMGMKREAVQEE [N43R],-0.003 ± 0.03
14,KHICAICGDRSSGKHYGVYSCEGCKGFFKRTVRKDLTYTCRDSKDCLIDKRQRNRCQYCRYQKCLAMGMKREAVQEE [N43S],0.019 ± 0.042
15,KHICAICGDRSSGKHYGVYSCEGCKGFFKRTVRKDLTYTCRDTKDCLIDKRQRNRCQYCRYQKCLAMGMKREAVQEE [N43T],0.049 ± 0.046
16,KHICAICGDRSSGKHYGVYSCEGCKGFFKRTVRKDLTYTCRDVKDCLIDKRQRNRCQYCRYQKCLAMGMKREAVQEE [N43V],0.013 ± 0.037
17,KHICAICGDRSSGKHYGVYSCEGCKGFFKRTVRKDLTYTCRDWKDCLIDKRQRNRCQYCRYQKCLAMGMKREAVQEE [N43W],-0.008 ± 0.042
18,KHICAICGDRSSGKHYGVYSCEGCKGFFKRTVRKDLTYTCRDYKDCLIDKRQRNRCQYCRYQKCLAMGMKREAVQEE [N43Y],-0.043 ± 0.061
19,KHICAICGDRSSGKHYGVYSCEGCKGFFKRTVRKDLTYTCRDNADCLIDKRQRNRCQYCRYQKCLAMGMKREAVQEE [K44A],0.001 ± 0.038
20,KHICAICGDRSSGKHYGVYSCEGCKGFFKRTVRKDLTYTCRDNCDCLIDKRQRNRCQYCRYQKCLAMGMKREAVQEE [K44C],-0.025 ± 0.052
21,KHICAICGDRSSGKHYGVYSCEGCKGFFKRTVRKDLTYTCRDNDDCLIDKRQRNRCQYCRYQKCLAMGMKREAVQEE [K44D],0.092 ± 0.056
22,KHICAICGDRSSGKHYGVYSCEGCKGFFKRTVRKDLTYTCRDNEDCLIDKRQRNRCQYCRYQKCLAMGMKREAVQEE [K44E],-0.033 ± 0.04
23,KHICAICGDRSSGKHYGVYSCEGCKGFFKRTVRKDLTYTCRDNFDCLIDKRQRNRCQYCRYQKCLAMGMKREAVQEE [K44F],-0.024 ± 0.073
24,KHICAICGDRSSGKHYGVYSCEGCKGFFKRTVRKDLTYTCRDNGDCLIDKRQRNRCQYCRYQKCLAMGMKREAVQEE [K44G],0.052 ± 0.028

row,Variant,abundance fitness
1,KHICAICGDRSSGKHYGVYSCEGCKGFFKRTVRKDLTYTCRDNHDCLIDKRQRNRCQYCRYQKCLAMGMKREAVQEE [K44H],-0.086 ± 0.078
2,KHICAICGDRSSGKHYGVYSCEGCKGFFKRTVRKDLTYTCRDNIDCLIDKRQRNRCQYCRYQKCLAMGMKREAVQEE [K44I],0.05 ± 0.066
3,KHICAICGDRSSGKHYGVYSCEGCKGFFKRTVRKDLTYTCRDNLDCLIDKRQRNRCQYCRYQKCLAMGMKREAVQEE [K44L],-0.083 ± 0.035
4,KHICAICGDRSSGKHYGVYSCEGCKGFFKRTVRKDLTYTCRDNMDCLIDKRQRNRCQYCRYQKCLAMGMKREAVQEE [K44M],-0.03 ± 0.036
5,KHICAICGDRSSGKHYGVYSCEGCKGFFKRTVRKDLTYTCRDNNDCLIDKRQRNRCQYCRYQKCLAMGMKREAVQEE [K44N],0.025 ± 0.059
6,KHICAICGDRSSGKHYGVYSCEGCKGFFKRTVRKDLTYTCRDNPDCLIDKRQRNRCQYCRYQKCLAMGMKREAVQEE [K44P],-0.022 ± 0.054
7,KHICAICGDRSSGKHYGVYSCEGCKGFFKRTVRKDLTYTCRDNQDCLIDKRQRNRCQYCRYQKCLAMGMKREAVQEE [K44Q],-0.04 ± 0.05
8,KHICAICGDRSSGKHYGVYSCEGCKGFFKRTVRKDLTYTCRDNRDCLIDKRQRNRCQYCRYQKCLAMGMKREAVQEE [K44R],-0.019 ± 0.03
9,KHICAICGDRSSGKHYGVYSCEGCKGFFKRTVRKDLTYTCRDNSDCLIDKRQRNRCQYCRYQKCLAMGMKREAVQEE [K44S],-0.011 ± 0.035
10,KHICAICGDRSSGKHYGVYSCEGCKGFFKRTVRKDLTYTCRDNTDCLIDKRQRNRCQYCRYQKCLAMGMKREAVQEE [K44T],0.057 ± 0.046
11,KHICAICGDRSSGKHYGVYSCEGCKGFFKRTVRKDLTYTCRDNVDCLIDKRQRNRCQYCRYQKCLAMGMKREAVQEE [K44V],-0.035 ± 0.031
12,KHICAICGDRSSGKHYGVYSCEGCKGFFKRTVRKDLTYTCRDNYDCLIDKRQRNRCQYCRYQKCLAMGMKREAVQEE [K44Y],-0.119 ± 0.098
13,KHICAICGDRSSGKHYGVYSCEGCKGFFKRTVRKDLTYTCRDNKCCLIDKRQRNRCQYCRYQKCLAMGMKREAVQEE [D45C],-0.049 ± 0.055
14,KHICAICGDRSSGKHYGVYSCEGCKGFFKRTVRKDLTYTCRDNKECLIDKRQRNRCQYCRYQKCLAMGMKREAVQEE [D45E],0.043 ± 0.037
15,KHICAICGDRSSGKHYGVYSCEGCKGFFKRTVRKDLTYTCRDNKFCLIDKRQRNRCQYCRYQKCLAMGMKREAVQEE [D45F],-0.104 ± 0.066
16,KHICAICGDRSSGKHYGVYSCEGCKGFFKRTVRKDLTYTCRDNKHCLIDKRQRNRCQYCRYQKCLAMGMKREAVQEE [D45H],-0.066 ± 0.077
17,KHICAICGDRSSGKHYGVYSCEGCKGFFKRTVRKDLTYTCRDNKICLIDKRQRNRCQYCRYQKCLAMGMKREAVQEE [D45I],-0.123 ± 0.13
18,KHICAICGDRSSGKHYGVYSCEGCKGFFKRTVRKDLTYTCRDNKKCLIDKRQRNRCQYCRYQKCLAMGMKREAVQEE [D45K],0.058 ± 0.047
19,KHICAICGDRSSGKHYGVYSCEGCKGFFKRTVRKDLTYTCRDNKLCLIDKRQRNRCQYCRYQKCLAMGMKREAVQEE [D45L],-0.062 ± 0.064
20,KHICAICGDRSSGKHYGVYSCEGCKGFFKRTVRKDLTYTCRDNKMCLIDKRQRNRCQYCRYQKCLAMGMKREAVQEE [D45M],-0.404 ± 0.19
21,KHICAICGDRSSGKHYGVYSCEGCKGFFKRTVRKDLTYTCRDNKNCLIDKRQRNRCQYCRYQKCLAMGMKREAVQEE [D45N],-0.034 ± 0.061
22,KHICAICGDRSSGKHYGVYSCEGCKGFFKRTVRKDLTYTCRDNKPCLIDKRQRNRCQYCRYQKCLAMGMKREAVQEE [D45P],-0.078 ± 0.057
23,KHICAICGDRSSGKHYGVYSCEGCKGFFKRTVRKDLTYTCRDNKRCLIDKRQRNRCQYCRYQKCLAMGMKREAVQEE [D45R],0.001 ± 0.03
